Experimental data published in patent US12624123B2, “Compositions and methods for reducing off-target toxicity of antibody drug conjugates” (The Research Foundation for The State University of New York, priority 2019, dated 2026).
Substitutions are numbered along the chain they refer to. “And” between values parts separate entries of the source, which are not always exact repeats. Equal entries are not always repeated. “Also recorded” adds a separate entry of the source. Where two headings read alike, the source gives them in different places.

Tests used:
Lovo cells = assay: MTT cytotoxicity of DM1 and DM4 on Lovo cells; format: cell-based; conditions: for IC50: DM1 alone, read-out: IC50 of DM1
Experimental: Log-phase Lovo or MOLM-14 cells were seeded in 96-well microtiter plates at a density of 5,000 cells/well, in 100 μL or 70 μL of culture medium, respectively. […] MOLM-14 cells were re-suspended with treatment solutions, where 100 μL of cell-treatment suspension was aliquoted into wells of a 96-well plate for 24 h. Treatment solutions consisted of DM-4 with or without purified anti-drug sdAb. For MOLM-14 cells, 10 μL of MTT solution (5 mg/mL in pH 7.4 1× PBS) was added directly to wells following treatment incubation. For adherent cells, treatment media was aspirated from wells and cells were washed three times with 100 μL of fresh media. Following the final wash, 100 μL of complete media and 25 μL of MTT solution were added to each well. Cells were incubated for 4 h in order to allow cells to reduce MTT to formazan dye. Once MTT was reduced, 100 μL of 10% SDS prepared in 0.01 M HCl was added to each well and incubated overnight to solubilize the formazan crystals. Formazan dye was measured at 570 nm and normalized by cell debris at 690 nm.

SK-BR-3 cells [1] = assay: MTT cytotoxicity assay in SK-BR-3 cells; format: cell-based
MOLM-14 cells = assay: MTT cytotoxicity of calicheamicin on MOLM-14 cells; format: cell-based, human; conditions: 24 h, 100 μM peptide or sdAb
Experimental: (§1) Log-phase MOLM-14, Ramos (RA 1), HT-29, LS174T, or NCI-N87 cells were seeded in 96-well microtiter plates at a density of 20,000 cells/well, 20,000 cells/well, 5,000 cells/well, 5,000 cells/well, and 10,000 cells/well, respectively, in 100 μL of culture medium. HT-29, LS174T, and NCI-N87 cells were allowed to adhere for 24 h before cell culture media was aspirated and replaced with 100 μL of fresh media containing a range of treatment for, 48 (LS174T), 96 (NCI-N87), or 120 (HT-29) h. MOLM-14 and Ramos cells were re-suspended with treatment solutions, where 100 μL of cell-treatment suspension was aliquoted into wells of a 96-well plate for 24 h. Treatment solutions consisted of calicheamicin, MMAE, topotecan, or SN38 with or without immunized animal plasma, purified anti-drug antibody, or antibody-drug conjugate (ADC) with or without plasma or anti-drug antibody. For MOLM-14 and Ramos cells, 25 μL of MTT solution (5 mg/mL in pH 7.4 1× PBS) was added directly to wells following treatment incubation. For adherent cells, treatment media was aspirated from wells and cells were washed three times with 100 μL of fresh media. Following the final wash, 100 μL of complete media and 25 μL of MTT solution were added to each well. Cells were incubated for 4 h in order to allow cells to reduce MTT to formazan dye. Once MTT was reduced, 100 μL of 10% SDS prepared in 0.01 M HCl was added to each well and incubated overnight to solubilize the formazan crystals. Formazan dye was measured at 570 nm and normalized by cell debris at 690 nm.
(§2) Fresh media containing a range of treatment were pre-incubated with or without 100 μM purified sdAb at room temperature for 30 minutes. Log-phase MOLM-14 cells were seeded in 96-well microtiter plates at a density of 20,000 cells/well, and were re-suspended with treatment solutions, where 100 μL of cell-treatment suspension was aliquoted into wells of a 96-well plate for 24 h. 25 μL of MTT solution (5 mg/mL in pH 7.4 1× PBS) was added directly to wells following treatment incubation. […] Formazan dye was measured at 570 nm and normalized by cell debris at 690 nm.

NCI-N87 cells = assay: Cell cytotoxicity with exatecan and trastuzumab deruxtecan, NCI-N87 cells; format: cell-based; conditions: for IC50: free exatecan alone
Experimental: Cells were incubated with the drug mixture for 24 hours at 37° C., 5% CO2. After incubation drug containing cell culture media was aspirated and 250 μL of fresh RPMI was added, allowing cells to grow for another 4 days. Then cell culture media was aspirated and 125 μL of RPMI with a final concentration of 1 mg/ml MTT was added followed by a four-hour incubation. MTT crystals were dissolved in 0.01 M HCL/10% SDS overnight at 37° C. followed by absorbance reading at 570 nm (corrected to 640 nm).

Ramos cells = assay: MTT cytotoxicity of calicheamicin on Ramos cells; format: cell-based; conditions: 24 h, calicheamicin alone
Experimental: as §1, §2

[2] = SPR dissociation screening on DM1-Biotin chip; format: binding; conditions: 20 min dissociation phase
Experimental: Preliminary screening of DM1/4 binders were performed using a neutravidin SPR chip with DM1-Biotin on the left channel. Phagemid purified sdAbs were flowed over the SPR chip for 2 minutes at a flow rate of 25 ul/min. After binding, sdAb was dissociated for 20 minutes. Observed sensorgrams were fit to an individual dissociation rate constant for each construct. Equilibrium and kinetic binding of 3A2 was assessed using a CM5 SPR chip with TDM1 immobilized on the left channel. […] Rate constants for 3A2-TDM1 association and dissociation were obtained through fitting of the observed sensorgrams for the 1.25, 2.5, 5, 7.5 and 10 nM injections to a 1:1 Langmuir binding model.

SK-BR-3 cells [3] = assay: MTT cytotoxicity assay in SK-BR-3 cells; format: cell-based; conditions: 24 h exposure, 10 μM sdAb
Experimental: Positive clone sdAbs' DNA in pComb3XSS plasmid was isolated and transferred into pET-22b expression vector in SHuffle cells for expression. SK-BR-3 cells were used to test the anti-DM4 sdAbs effect on DM4 cytotoxicity. Briefly, 2,500 cells/well were seeded into a 96-well plate and allowed to adhere for 24 h before cell culture media was aspirated and replaced with 100 μL of fresh media solution containing with or without 10 μM of anti-DM4 sdAb and a range of DM4 concentration for another 24 h exposure period. The cells were then washed 2 times before replacing with fresh media and allowed to grow for additional 72 h.

[4] = Competitive ELISA with free DM4; format: binding; conditions: for Kd: free DM4, read-out: Estimated KD; for IC50: read-out: Estimated binding affinity IC50 to free DM4
Experimental: To determine the binding affinity of the anti-DM4 sdAbs to DM4-conjugates and free DM4, indirect ELISA and competitive ELISA were employed. Briefly, ELISA plate were coated overnight with 100 μL of neutravidin at different concentration ranging from 1 μg/mL to 10 μg/mL. After blocking with 200 μL of 2% skimmed milk-PBST for 1 h, 100 μL of 1 μM biotin-DM4 solution was added into each well and incubated for 30 min, then 100 μL of purified anti-DM4 sdAb solution at concentration ranging from 0.1 nM to 1 μM was added and incubated for 1 h. Bound sdAbs were detected with HRP conjugated anti-His antibody and TMB substrate. After the linear range of binding was determined via the indirect ELISA, a concentration of anti-DM4 sdAb near the IC50 of binding was selected to proceed with competitive ELISA. For the competitive ELISA, anti-DM4 sdAb concentration was held constant as determined from the indirect ELISA and incubated with increasing concentration of DM4 ranging from 0.1 nM to 1 μM.

Molecule: COc1cc2cc(c1Cl)N(C)C(=O)C[C@H](OC(=O)[C@H](C)N(C)C(=O)CCS)[C@]1(C)O[C@H]1[C@H](C)[C@@H]1C[C@@](O)(NC(=O)O1)[C@H](OC)/C=C/C=C(\C)C2 [DM1]
- IC50 (Lovo cells; 6 h exposure): 30.5 nM and 22.1 nM
- IC50 (Lovo cells; 24 h exposure): 3.07 nM and 2.12 nM
- IC50 (SK-BR-3 cells [1]; 24 h exposure, DM1 alone, read-out: IC50 of DM1): 4.43 nM

Molecule: anti-calicheamicin peptide HSWHWPSWWAGGGGGS (SEQ ID NO:1) [C2]
- fold change of calicheamicin IC50 (MOLM-14 cells): 5.69 fold

Molecule: CC[C@@]1(O)C(=O)OCc2c1cc1n(c2=O)Cc2c-1nc1cc(F)c(C)c3c1c2[C@@H](N)CC3 [exatecan, reference compound]
- IC50 (NCI-N87 cells; Homo sapiens, NCI-N87, NCI-N87 cells): 1.5 nM
- IC50 (NCI-N87 cells; NCI-N87 cells): 2.1 nM

Molecule: anti-calicheamicin peptide SWWFPQWMAQYPGGGS (SEQ ID NO:2) [C9]
- fold change of calicheamicin IC50 (MOLM-14 cells): 3.56 fold

Molecule: calicheamicin
- IC50 (Ramos cells): 2.5 nM and 2.98 nM
- IC50 (Ramos cells; listed as Calicheamicin): 2.5 ± 0.224 nM

Molecule: T-DM1 [reference compound]
- IC50 (SK-BR-3 cells [1]; 24 h, without DMFH1, read-out: IC50 of T-DM1): 0.0128 nM

B1: 8C2 Fab: Fab of 8C2 by papain digestion; heavy SEQ ID NO:4, light SEQ ID NO:5 (antibody)
heavy: MKCSWVIFFLMAVVTGVNSEEVQLQQSGAELVKPGASVKLSCTASGFNIKDTYIHWVKQRPEQGLEWIGMIDLANDNTKYDPKFQGKATIITDTSSNKAYLQVSSLTSEDTAVYYCATWGAIITLGGWGQGTLVTVSAAKTTPPSVYPLAPGSAAQTNSMVTLGCLVKGYFPEPVTVTWNSGSLSSGVHTFPAVLQSDLYTLSSSVTVPSSTWPSETVTCNVAN
light: MSVLTQVLALLLLWLTGARCDIQMTQSPASLSASVGETVTITCRASGNIHNSLAWYQQIKGRSPQLLVYNAKTLADGVPSRFSGSGSGTQYSLKINSLHPEDFGSYYCQHFWSTPFTFGSGTKLEIKRADAAPTVSIFPPSSEQLTSGGASVVCFLNNFYPKDINVKWKIDGSEERQNGVLNSWTDQDSKDSTYSMSSTLTLTKD
modifications: 8C2 Fab heavy chain; 8C2 Fab light chain
- effect on trastuzumab deruxtecan cytotoxicity (NCI-N87 cells; NCI-N87 cells, ADC with 8C2 mAb or Fab): did not prevent cell death; also recorded: does not significantly alter

B2: DT3B3 (protein)
VHH: EVQLVESGGGLVQAGGSLRLSCALSGGTLRSYTMGWIRQAPGKEREFVAGNRWSGGRTYYADSVKGRFTISGDNAENTVYLQMNSLKPEDTAVYYCTADVTEYGEDSSAYWGRGTQVTVSS
modifications: DT3B3
- dissociation kinetics [2]: longest dissociation rates; also recorded: longer dissociation rates

B3: DT3H3 (protein)
VHH: EVQLVESGGGLVQPGGSLRLSCAASGRTFSHDHMGWFRQAPGKEREFVAAISWTSSTYYGDSVKGRFTISRSNAKNTVYLQMNSLKPEDTAIYYCSWGVGYWGQGTQVTVSS
- dissociation kinetics [2]: longest dissociation rates; also recorded: longer dissociation rates

B4: DF3A4 (protein)
VHH: QVQLQESGGGLVQPGGSLRLSCAASGSIFGISYMGWYRQAPGKQREPVALITSGGSTYYADSVKGRVTISRDNAKKTVYLQMNSLRPEDTSTYYCAAGFYRSDSPNRYDYWGQGTQVTVSS
modifications: DF3A4
- fold shift of DM4 IC50 (Lovo cells; 6 h exposure): 5.88 fold
- fold shift of DM1 IC50 (Lovo cells; 6 h exposure, 10 μM sdAb): 14.8 fold

B5: DF4B12 (protein)
VHH: B4 VHH with Q1E, Q5V, S56D, Y58A, A60G, V67F, K76N, R86T, Y93F
modifications: DF4B12
- fold shift of DM4 IC50 (Lovo cells; 6 h exposure): 15.5 fold
- fold shift of DM1 IC50 (Lovo cells; 6 h exposure, 10 μM sdAb): 53 fold
- fold shift of DM4 IC50 (Lovo cells; 24 h exposure, 10 μM sdAb): 8.66 fold and 9.4 fold

B6: DMOH9: affinity matured Anti-DM1/DM4 sdAb, SEQ ID NO:32 (protein)
VHH: B4 VHH with S32T, L50M, F99Y
modifications: DMOH9
- Fold shifted (DM4 IC50) (SK-BR-3 cells [3]): 210 fold and 209.5 fold
- Kd [4]: 20 nM and 19.9 nM
- IC50 [4]: 20 nM

B7: DMOF8 (protein)
VHH: B4 VHH with L50M, G54S, K64R, D72A, F99Y
modifications: DMOF8
- Fold shifted (DM4 IC50) (SK-BR-3 cells [3]): 104 fold and 104.1 fold
- Kd [4]: 26 nM and 26.2 nM
- IC50 [4]: 26 nM

B8: DMFH2 (protein)
VHH: B4 VHH with I28T, L50M, A60V
modifications: DMFH2
- Fold shifted (DM4 IC50) (SK-BR-3 cells [3]): 150 fold and 149.4 fold
- Kd [4]: 25 nM and 25.2 nM
- IC50 [4]: 25 nM

B9: DMFF2 (protein)
VHH: B4 VHH with A60V, F99Y
modifications: DMFF2
- Fold shifted (DM4 IC50) (SK-BR-3 cells [3]): 95 fold and 93.65 fold
- Kd [4]: 57 nM and 56.6 nM
- IC50 [4]: 57 nM

B10: DMFB8 (protein)
VHH: B4 VHH with L50M, N83Y, F99Y
modifications: DMFB8
- Fold shifted (DM4 IC50) (SK-BR-3 cells [3]): 140 fold and 140.2 fold
